Results reported in PMC6044717 (ACS Omega, 2018).
Each block holds one compound with its values, some of them ahead of it.

How the values were obtained:
[1] = molecular target: Human recombinant integrin α5β1 (human) (UniProt P08648); test: fluorescence polarisation
[2] = molecular target: fluorescein isothiocyanate (FITC)-conjugated GRGDSP peptide; test: fluorescence polarisation
[3] = Solubility in water; type: physicochemical; settings: physiological pH and temperature

Compound: arginine–glycine–aspartic acid tripeptide (RGD)
IC50 [1]: 26.8 µM
Ki [1]: 10.8 µM

Compound: depsipeptide R-Glc-D (arginine–glycolic acid–aspartic acid)
IC50 [1]: 1120 µM
Ki [1]: 454 µM

Compound: Human recombinant integrin α5β1 (from UniProt P08648 42-1049; P05556 21-728) (complex)
Kd [2]: 0.207 µM

solubility in water [3]: not readily soluble
Compound: O=C(N[C@@H](Cc1ccccc1)C(=O)O)OCC1c2ccccc2-c2ccccc21 [Fmoc-F]
